B1: E3 ubiquitin-protein ligase CBL-B (Homo sapiens), Q13191-1 (parent)
chain: MANSMNGRNPGGRGGNPRKGRILGIIDAIQDAVGPPKQAAADRRTVEKTWKLMDKVVRLCQNPKLQLKNSPPYILDILPDTYQHLRLILSKYDDNQKLAQLSENEYFKIYIDSLMKKSKRAIRLFKEGKERMYEEQSQDRRNLTKLSLIFSHMLAEIKAIFPNGQFQGDNFRITKADAAEFWRKFFGDKTIVPWKVFRQCLHEVHQISSGLEAMALKSTIDLTCNDYISVFEFDIFTRLFQPWGSILRNWNFLAVTHPGYMAFLTYDEVKARLQKYSTKPGSYIFRLSCTRLGQWAIGYVTGDGNILQTIPHNKPLFQALIDGSREGFYLYPDGRSYNPDLTGLCEPTPHDHIKVTQEQYELYCEMGSTFQLCKICAENDKDVKIEPCGHLMCTSCLTAWQESDGQGCPFCRCEIKGTEPIIVDPFDPRDEGSRCCSIIDPFGMPMLDLDDDDDREESLMMNRLANVRKCTDRQNSPVTSPGSSPLAQRRKPQPDPLQIPHLSLPPVPPRLDLIQKGIVRSPCGSPTGSPKSSPCMVRKQDKPLPAPPPPLRDPPPPPPERPPPIPPDNRLSRHIHHVESVPSRDPPMPLEAWCPRDVFGTNQLVGCRLLGEGSPKPGITASSNVNGRHSRVGSDPVLMRKHRRHDLPLEGAKVFSNGHLGSEEYDVPPRLSPPPPVTTLLPSIKCTGPLANSLSEKTRDPVEEDDDEYKIPSSHPVSLNSQPSHCHNVKPPVRSCDNGHCMLNGTHGPSSEKKSNIPDLSIYLKGDVFDSASDPVPLPPARPPTRDNPKHGSSLNRTPSDYDLLIPPLGEDAFDALPPSLPPPPPPARHSLIEHSKPPGSSSRPSSGQDLFLLPSDPFVDLASGQVPLPPARRLPGENVKTNRTSQDYDQLPSCSDGSQAPARPPKPRPRRTAPEIHHRKPHGPEAALENVDAKIAKLMGEGYAFEEVKRALEIAQNNVEVARSILREFAFPPPVSPRLNL
partner: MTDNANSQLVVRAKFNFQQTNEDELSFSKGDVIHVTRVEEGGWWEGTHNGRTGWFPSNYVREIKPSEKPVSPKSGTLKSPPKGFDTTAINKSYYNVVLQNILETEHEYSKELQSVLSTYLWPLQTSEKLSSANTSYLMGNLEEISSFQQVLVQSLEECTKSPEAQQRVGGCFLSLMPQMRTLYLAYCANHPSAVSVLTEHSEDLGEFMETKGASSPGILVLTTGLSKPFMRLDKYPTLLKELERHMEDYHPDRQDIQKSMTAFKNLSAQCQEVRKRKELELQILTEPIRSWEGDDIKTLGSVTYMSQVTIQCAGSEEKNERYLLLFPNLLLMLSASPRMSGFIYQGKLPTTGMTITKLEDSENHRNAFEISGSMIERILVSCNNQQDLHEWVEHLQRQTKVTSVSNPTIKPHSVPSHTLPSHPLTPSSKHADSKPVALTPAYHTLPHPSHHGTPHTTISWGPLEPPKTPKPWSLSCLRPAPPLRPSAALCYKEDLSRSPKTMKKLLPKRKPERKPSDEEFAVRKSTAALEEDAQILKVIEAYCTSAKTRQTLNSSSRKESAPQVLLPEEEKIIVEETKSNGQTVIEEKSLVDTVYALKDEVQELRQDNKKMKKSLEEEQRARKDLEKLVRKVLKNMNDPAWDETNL

Variants of: B1
Conditions: with arhg7_rat Arhgef7, O55043

| effect of a mutation on the interaction | Variant |
| --- | --- |
| decreasing interaction strength | R904A |

From IntAct's records for PubMed 16228008
